Experimental data published in patent US20170015742A1 (published 2017).
Substitutions are numbered along the chain they refer to. Numbers in names are those of the source.

B1: 9E10.6_GS_CL-33675 (PR-1612492) (bispecific antibody, human IgG1, kappa, L234A L235A)
heavy: EVQLVQSGAEVKKPGSSVKVSCKASGYTFTNYGMYWVRQAPGQGLEWMGWIDTETGRPTYADDFKGRFTFTADKSTSTAYMELSSLRSEDTAVYYCARWSGDTTGIRGPWFAYWGQGTLVTVSSGGGGSGGGGSEVTLRESGPALVKPTQTLTLTCTFSGFSLSTYGMGVGWIRQPPGKALEWLANIWWDDDKYYNPSLKNRLTISKDTSKNQVVLTMTNMDPVDTATYYCARIESSGPKYSFDYWGQGTMVTVSSASTKGPSVFPLAPSSKSTSGGTAALGCLVKDYFPEPVTVSWNSGALTSGVHTFPAVLQSSGLYSLSSVVTVPSSSLGTQTYICNVNHKPSNTKVDKKVEPKSCDKTHTCPPCPAPEAAGGPSVFLFPPKPKDTLMISRTPEVTCVVVDVSHEDPEVKFNWYVDGVEVHNAKTKPREEQYNSTYRVVSVLTVLHQDWLNGKEYKCKVSNKALPAPIEKTISKAKGQPREPQVYTLPPSREEMTKNQVSLTCLVKGFYPSDIAVEWESNGQPENNYKTTPPVLDSDGSFFLYSKLTVDKSRWQQGNVFSCSVMHEALHNAYTQKSLSLSPGK
light: DIRMTQSPSSLSASVGDRVTITCLASEDIYSDLAWYQQKPGKSPKLLIYNANGLQNGVPSRFSGSGSGTDYTLTISSLQPEDVATYFCQQYNYFPGTFGQGTKLEIKGGSGGGGSGGEIVLTQSPGTLSLSPGERATLSCRASSGSIWYSFVSWYQQKPGQAPRLLIYADDQRASGIPDRFSGSGSGTDFTLTISRLEPEDFAVYYCQSYGINIDVVFGGGTKVEIKRTVAAPSVFIFPPSDEQLKSGTASVVCLLNNFYPREAKVQWKVDNALQSGNSQESVTEQDSKDSTYSLSSTLTLSKADYEKHKVYACEVTHQGLSSPVTKSFNRGEC
notes: DVD-Ig: outer hBEW-9E10.6 (VEGF), inner CL-33675 (PDGF), linkers GS-H10 / GS-L10(dR); Human IgG1 L234A, L235A, H435A with kappa light chain
B2: 1E3.4_GS_3E2.1 (PR-1612495) (bispecific antibody, human IgG1, kappa, L234A L235A)
heavy: EIQLVQSGSELKKPGASVKVSCKASGYPFTNSGMYWVKQAPGQGLEYMGWINTEAGKPTYADDFKGRFVFSLDTSVSTAYLQISSLKAEDTAVYFCARWGYISDNSYGWFDYWGQGTLVTVSSGGGGSGGGGSEVQLVQSGAEVKKPGSSVKVSCKASGYTFTESYMYWVKQAPGQGLELIGRIDPEDGSTDYVEKFKNKATLTADKSTSTAYMELSSLRSEDTAVYFCARFGARSYFYPMDAWGQGTTVTVSSASTKGPSVFPLAPSSKSTSGGTAALGCLVKDYFPEPVTVSWNSGALTSGVHTFPAVLQSSGLYSLSSVVTVPSSSLGTQTYICNVNHKPSNTKVDKKVEPKSCDKTHTCPPCPAPEAAGGPSVFLFPPKPKDTLMISRTPEVTCVVVDVSHEDPEVKFNWYVDGVEVHNAKTKPREEQYNSTYRVVSVLTVLHQDWLNGKEYKCKVSNKALPAPIEKTISKAKGQPREPQVYTLPPSREEMTKNQVSLTCLVKGFYPSDIAVEWESNGQPENNYKTTPPVLDSDGSFFLYSKLTVDKSRWQQGNVFSCSVMHEALHNAYTQKSLSLSPGK
light: ATQLTQSPSSLSASVGDRVTISCRASEGVYSYMHWYQQKPGKQPKLLIYKASNLASGVPSRFSGSGSGTDFTLTISSLQPEDFATYFCHQNWNDPLTFGQGTKLEIKGGSGGGGSGGETVLTQSPATLSLSPGERATLSCRASESVSTLMHWYQQKPGQQPRLLIYGASNLESGVPARFSGSGSGTDFTLTISSLEPEDFAVYFCQQSWNDPWTFGGGTKVEIKRTVAAPSVFIFPPSDEQLKSGTASVVCLLNNFYPREAKVQWKVDNALQSGNSQESVTEQDSKDSTYSLSSTLTLSKADYEKHKVYACEVTHQGLSSPVTKSFNRGEC
notes: DVD-Ig: outer hBEW-1E3.4 (VEGF), inner hBFU-3E2.1 (PDGF), linkers GS-H10 / GS-L10(dR); Human IgG1 L234A, L235A, H435A with kappa light chain
B3: 1B10.1_GS_CL-33675 (PR-1611292) (bispecific antibody, human IgG1, kappa, L234A L235A)
heavy: EVQLVESGGGLVQPGGSLRLSCAASGFSFSKYDMAWFRQAPGKGLEWVASITTSGVGTYYRDSVKGRFTVSRDNAKSTLYLQMNSLRAEDTAVYYCARGYGAMDAWGQGTTVTVSSGGGGSGGGGSEVTLRESGPALVKPTQTLTLTCTFSGFSLSTYGMGVGWIRQPPGKALEWLANIWWDDDKYYNPSLKNRLTISKDTSKNQVVLTMTNMDPVDTATYYCARIESSGPKYSFDYWGQGTMVTVSSASTKGPSVFPLAPSSKSTSGGTAALGCLVKDYFPEPVTVSWNSGALTSGVHTFPAVLQSSGLYSLSSVVTVPSSSLGTQTYICNVNHKPSNTKVDKKVEPKSCDKTHTCPPCPAPEAAGGPSVFLFPPKPKDTLMISRTPEVTCVVVDVSHEDPEVKFNWYVDGVEVHNAKTKPREEQYNSTYRVVSVLTVLHQDWLNGKEYKCKVSNKALPAPIEKTISKAKGQPREPQVYTLPPSREEMTKNQVSLTCLVKGFYPSDIAVEWESNGQPENNYKTTPPVLDSDGSFFLYSKLTVDKSRWQQGNVFSCSVMHEALHNAYTQKSLSLSPGK
light: DIQMTQSPSSLSASVGDRVTITCKASQDIDDYLSWYQQKPGKSPKLVIYAATRLADGVPSRFSGSGSGTDYTLTISSLQPEDFATYYCLQSSSTPWTFGGGTKVEIKGGSGGGGSGGEIVLTQSPGTLSLSPGERATLSCRASSGSIWYSFVSWYQQKPGQAPRLLIYADDQRASGIPDRFSGSGSGTDFTLTISRLEPEDFAVYYCQSYGINIDVVFGGGTKVEIKRTVAAPSVFIFPPSDEQLKSGTASVVCLLNNFYPREAKVQWKVDNALQSGNSQESVTEQDSKDSTYSLSSTLTLSKADYEKHKVYACEVTHQGLSSPVTKSFNRGEC
notes: DVD-Ig: outer hBEW-1B10.1 (VEGF), inner CL-33675 (PDGF), linkers GS-H10 / GS-L10(dR); Human IgG1 L234A, L235A, H435A with kappa light chain
B4: 9E10.1_GS_3E2.1 (PR-1610562) (bispecific antibody, human IgG1, kappa, L234A L235A)
heavy: EIQLVQSGSELKKPGASVKVSCKASGYTFTNYGMYWVKQAPGQGLEYMGWIDTETGRPTYADDFKGRFVFSLDTSVSTAYLQISSLKAEDTAVYFCARWSGDTTGIRGPWFAYWGQGTLVTVSSGGGGSGGGGSEVQLVQSGAEVKKPGSSVKVSCKASGYTFTESYMYWVKQAPGQGLELIGRIDPEDGSTDYVEKFKNKATLTADKSTSTAYMELSSLRSEDTAVYFCARFGARSYFYPMDAWGQGTTVTVSSASTKGPSVFPLAPSSKSTSGGTAALGCLVKDYFPEPVTVSWNSGALTSGVHTFPAVLQSSGLYSLSSVVTVPSSSLGTQTYICNVNHKPSNTKVDKKVEPKSCDKTHTCPPCPAPEAAGGPSVFLFPPKPKDTLMISRTPEVTCVVVDVSHEDPEVKFNWYVDGVEVHNAKTKPREEQYNSTYRVVSVLTVLHQDWLNGKEYKCKVSNKALPAPIEKTISKAKGQPREPQVYTLPPSREEMTKNQVSLTCLVKGFYPSDIAVEWESNGQPENNYKTTPPVLDSDGSFFLYSKLTVDKSRWQQGNVFSCSVMHEALHNAYTQKSLSLSPGK
light: DIRMTQSPSSLSASVGDRVTIECLASEDIYSDLAWYQQKPGKSPKLLIYNANGLQNGVPSRFSGSGSGTDYSLTISSLQPEDVATYFCQQYNYFPGTFGQGTKLEIKGGSGGGGSGGETVLTQSPATLSLSPGERATLSCRASESVSTLMHWYQQKPGQQPRLLIYGASNLESGVPARFSGSGSGTDFTLTISSLEPEDFAVYFCQQSWNDPWTFGGGTKVEIKRTVAAPSVFIFPPSDEQLKSGTASVVCLLNNFYPREAKVQWKVDNALQSGNSQESVTEQDSKDSTYSLSSTLTLSKADYEKHKVYACEVTHQGLSSPVTKSFNRGEC
notes: DVD-Ig: outer hBEW-9E10.1 (VEGF), inner hBFU-3E2.1 (PDGF), linkers GS-H10 / GS-L10(dR); Human IgG1 L234A, L235A, H435A with kappa light chain
B5: 9E10.6_GS_3E2.1 (PR-1610563) (bispecific antibody, human IgG1, kappa, L234A L235A)
heavy: EVQLVQSGAEVKKPGSSVKVSCKASGYTFTNYGMYWVRQAPGQGLEWMGWIDTETGRPTYADDFKGRFTFTADKSTSTAYMELSSLRSEDTAVYYCARWSGDTTGIRGPWFAYWGQGTLVTVSSGGGGSGGGGSEVQLVQSGAEVKKPGSSVKVSCKASGYTFTESYMYWVKQAPGQGLELIGRIDPEDGSTDYVEKFKNKATLTADKSTSTAYMELSSLRSEDTAVYFCARFGARSYFYPMDAWGQGTTVTVSSASTKGPSVFPLAPSSKSTSGGTAALGCLVKDYFPEPVTVSWNSGALTSGVHTFPAVLQSSGLYSLSSVVTVPSSSLGTQTYICNVNHKPSNTKVDKKVEPKSCDKTHTCPPCPAPEAAGGPSVFLFPPKPKDTLMISRTPEVTCVVVDVSHEDPEVKFNWYVDGVEVHNAKTKPREEQYNSTYRVVSVLTVLHQDWLNGKEYKCKVSNKALPAPIEKTISKAKGQPREPQVYTLPPSREEMTKNQVSLTCLVKGFYPSDIAVEWESNGQPENNYKTTPPVLDSDGSFFLYSKLTVDKSRWQQGNVFSCSVMHEALHNAYTQKSLSLSPGK
light: B4 light with E22T, S72T
notes: DVD-Ig: outer hBEW-9E10.6 (VEGF), inner hBFU-3E2.1 (PDGF), linkers GS-H10 / GS-L10(dR); Human IgG1 L234A, L235A, H435A with kappa light chain

biological target: PDGF-BB (UniProt P01127 82-190); assay: SPR (Biacore), DVD-Ig captured by anti-human Fc, antigen injected
Sequence (P01127 82-190): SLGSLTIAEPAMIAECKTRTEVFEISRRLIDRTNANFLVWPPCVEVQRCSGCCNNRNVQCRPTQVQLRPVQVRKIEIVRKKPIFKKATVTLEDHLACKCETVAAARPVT
Protocol: (§1) For example, approximately 9000 RU of goat anti-human Fc specific polyclonal antibody (Thermo Fisher Scientific Inc., Rockford, Ill.) diluted in 10 mM sodium acetate (pH 4.5) is directly immobilized across a CM5 research grade biosensor chip using a standard amine coupling kit according to manufacturer's instructions and procedures at 25 μg/ml. Unreacted moieties on the biosensor surface were blocked with ethanolamine. For kinetic analysis, rate equations derived from the 1:1 Langmuir binding model were fitted simultaneously to multiple antigen injections (using global fit analysis) with the use of Scrubber 2 (BioLogic Software), Biacore Biaevaluation 4.0.1 software or Biacore T100 Evaluation software. Purified antibodies or DVD-Ig molecules were diluted in running buffer for capture across goat anti-human Fc reaction surfaces. Antibodies or DVD-Ig molecules to be captured as a ligand (1 μg/ml) were injected over reaction matrices at a flow rate of 10 μl/minute. During the assay, all measurements were referenced against the capture surface alone (i.e., with no captured antibody or DVD-Ig molecule). […] The equilibrium dissociation constant KD (M) of the reaction between antibodies and the target antigen was then calculated from the kinetic rate constants by the following formula: KD=Koff/Kₒₙ. Binding was recorded as a function of time and kinetic rate constants were calculated.

Binder	Kd [pM]	kon [M⁻¹ s⁻¹]
B1	1.2	2.4e+07
B2	12	4.5e+07
B3	0.54	2.2e+07
B4	21	4.1e+07
B5	36	5.8e+06

biological target: VEGF-A (UniProt P15692-4 27-191, limits assumed); assay: as above
Sequence (P15692 other isoform, or with tags, fused parts or gaps limits assumed): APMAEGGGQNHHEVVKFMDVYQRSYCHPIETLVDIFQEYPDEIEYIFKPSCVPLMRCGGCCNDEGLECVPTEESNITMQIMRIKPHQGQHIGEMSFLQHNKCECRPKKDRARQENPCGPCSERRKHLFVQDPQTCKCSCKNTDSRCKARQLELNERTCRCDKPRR
Protocol: as §1

Binder	Kd [pM]	kon [M⁻¹ s⁻¹]
B1	2	1.1e+07
B2	9.8	5.3e+06
B3	62	2.1e+06
B4	2.4	9.3e+06
B5	3	8.6e+06
